Assay results published in publication PMC6449081.

How the values were obtained:
[1] = target: Dec E73R with a C-terminal histidine tag (phage L); experiment: native gel or EMSA; native gel of purified Dec variants in solution
[2] = target: Dec Y49E with a C-terminal histidine tag (phage L); experiment: as above
[3] = target: phage L decoration protein Dec, capsid-bound trimer in native phage L virions (phage L); experiment: cryo-EM structure; native phage L virions, vitrified; icosahedral reconstruction, 4.2 Å; NMR OB-fold of Dec and a coat homology model fitted into the map
[4] = target: Dec K30D with a C-terminal histidine tag (phage L); experiment: native gel or EMSA; native gel of purified Dec variants in solution
[5] = target: phage P22 coat protein E81R:E323R, in P22 phage particles (phage P22) (UniProt P26747); experiment: co-sedimentation; purified Dec added to purified P22 phages with WT or variant coat protein; free Dec separated by cesium chloride density gradient sedimentation; phage bands TCA-precipitated, SDS-PAGE, Coomassie bands of coat and Dec quantitated and normalized to the ratio in native P22 particles bound with Dec
[6] = target: Dec Y71A with a C-terminal histidine tag (phage L); experiment: native gel or EMSA; native gel of purified Dec variants in solution
[7] = target: Dec Y31A with a C-terminal histidine tag (phage L); experiment: as above

Substance: Dec E73R with a C-terminal histidine tag (natural protein)
- stoichiometry N [1]: 3

Substance: Dec Y49E with a C-terminal histidine tag (natural protein)
- stoichiometry N [2]: 3

Substance: phage L decoration protein Dec, capsid-bound trimer in native phage L virions (natural protein)
- stoichiometry N [3]: 3

Substance: Dec K30D with a C-terminal histidine tag (natural protein)
- stoichiometry N [4]: 3

Substance: recombinant wild type Dec with a C-terminal histidine tag (natural protein)
- Dec binding, normalized to WT (%) [5]: < 20%

Substance: Dec Y71A with a C-terminal histidine tag (natural protein)
- stoichiometry N [6]: 3

Substance: Dec Y31A with a C-terminal histidine tag (natural protein)
- stoichiometry N [7]: 3
